Test results taken from paper PMC10468207.

Experiments:
CaMKII^F394BzF (human) = CaMKII^F394BzF (human) (UniProt Q9UQM7); test: SEC; Superose 6 10/300 increase column; SEC buffer 25 mM Tris pH 8, 250 mM NaCl, 1% glycerol, 1 mM TCEP; assembly of subunits into the holoenzyme
[1] = molecular target: kinase-dead CaMKII (K42R and D135N double mutant) with C-terminal AviTag (human) (UniProt Q9UQM7); test: mass photometry; 400 nM CaMKII, basal conditions; 25 mM Tris pH 8, 150 mM KCl, 1 mM TCEP; Refeyn One MP
[2] = molecular target: kinase-dead CaMKII (K42R and D135N double mutant) with C-terminal AviTag (human) (UniProt Q9UQM7); test: mass photometry; 400 nM CaMKII, activating conditions (8 µM CaMKII incubated with 1.5 µM Ca2+:CaM, 1 mM ATP, 2 mM MgCl2 for 5 min at room temperature, then diluted); 25 mM Tris pH 8, 150 mM KCl, 1 mM TCEP
[3] = molecular target: kinase-dead CaMKII (K42R and D135N double mutant) with C-terminal AviTag (human) (UniProt Q9UQM7); test: SEC; Superose 6 10/300 increase column; SEC buffer 25 mM Tris pH 8, 250 mM NaCl, 1% glycerol, 1 mM TCEP; assembly of subunits into the holoenzyme

Substance: CaMKII^F394BzF (from UniProt Q9UQM7 6-478) (enzyme)
- stoichiometry N (CaMKII^F394BzF (human)): 12

Substance: kinase-dead CaMKII (K42R and D135N double mutant) with C-terminal AviTag (from UniProt Q9UQM7 6-478) (enzyme)
- stoichiometry N [1]: 10
- percent in the tetramer peak [2]: 12%
- stoichiometry N [2]: 4
- stoichiometry N [3]: 12
